Legend:
[1] = molecular target: T1, Full length human HtrA1 (HuHtrA1) (Q23-P480), N-terminal His6 tag (human, UniProt Q92743 23-480); assay: cell-based or functional assay
[2] = molecular target: Protease domain of murine HtrA1 (MuHtrA1_PD) (G156-S367) (murine, UniProt Q9R118 156-367); assay: SPR (BIAcore T100), single-cycle kinetics, biotinylated MuHtrA1_PD captured on streptavidin, Fab in solution
Experimental: Briefly, series S sensor chip CM5 was activated with EDC and NHS reagents according to the supplier's instructions, and streptavidin (Pierce) was coupled to achieve approximately 2000 response units (RU), followed by blocking unreacted groups with 1M ethanolamine.
The sensorgrams were recorded and evaluated by BIAcore™ T100 Evaluation Software (version 2.0) after subtraction of reference cell signal. Association rates (kₒₙ) and dissociation rates (koff) were calculated using a simple one-to-one Langmuir binding model. The equilibrium dissociation constant (KD) was calculated as the ratio […] (see Table 1 below).

[3] = molecular target: T1, Full length human HtrA1 (HuHtrA1) …; assay: SPR (BIAcore T100), single-cycle kinetics, biotinylated human HtrA1 captured on streptavidin, Fab in solution
Description: (§1) To determine the binding affinity of HtrA1 antibodies by single cycle kinetics, Surface Plasmon Resonance (SRP) measurement with a BIAcore™ T100 instrument was used. Briefly, a series S sensor chip CM5 was activated with EDC and NHS reagents according to the supplier's instructions, and streptavidin (Pierce) was coupled to achieve approximately 2000 response units (RU), followed by blocking un-reacted groups with 1M ethanolamine.
(§2) For kinetics measurements, biotinylated human or murine HtrA1 was first injected at 10 ul/min flow rate to capture approximately 100 RU at 3 different flow cells (FC), except for FC1 (reference), and then 5-fold serial dilutions of anti-HtrA1 Fab in HBS-P buffer (0.01M HEPES pH 7.4, 0.15M NaCl, 0.005% surfactant P20) from low (0.48 nM) to high (300 nM) [5 points] were injected (flow rate: 30 μl/min) one after the other in the same cycle with no regeneration between injections. The sensorgram was recorded and subject to reference and buffer subtraction before evaluation by BIAcore™ T100 Evaluation Software (version 2.0). Association rates (km) and dissociation rates (koff) were calculated using a simple one-to-one Langmuir binding model. The equilibrium dissociation constant (Kd) was calculated as the ratio koff/kₒₙ.

[4] = molecular target: T2, Full length murine HtrA1 (MuHtrA1) (P24-P480), N-terminal His6 tag (murine, UniProt Q9R118 24-480); assay: SPR (BIAcore T100), single-cycle kinetics, biotinylated murine HtrA1 captured on streptavidin, Fab in solution
T2 construct: Expressed in insect cells
T2 sequence (Q9R118 other isoform, or with tags, fused parts or gaps): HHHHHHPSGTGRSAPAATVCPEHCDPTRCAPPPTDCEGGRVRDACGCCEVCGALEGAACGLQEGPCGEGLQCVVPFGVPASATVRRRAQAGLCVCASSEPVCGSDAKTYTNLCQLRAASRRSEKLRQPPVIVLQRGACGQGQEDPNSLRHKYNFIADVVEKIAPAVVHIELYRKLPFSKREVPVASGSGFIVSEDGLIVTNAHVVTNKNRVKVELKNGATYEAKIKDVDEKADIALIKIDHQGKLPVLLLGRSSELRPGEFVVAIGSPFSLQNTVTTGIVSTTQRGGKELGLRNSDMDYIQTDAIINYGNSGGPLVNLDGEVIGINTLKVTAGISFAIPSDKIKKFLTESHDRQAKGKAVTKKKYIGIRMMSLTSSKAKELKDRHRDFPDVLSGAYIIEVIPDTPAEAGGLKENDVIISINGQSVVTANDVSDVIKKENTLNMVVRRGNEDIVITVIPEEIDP
Description: as §1, §2

[5] = molecular target: T3, Protease domain of human HtrA1 (HuHtrA1_PD), residues D161-K379 (human, UniProt F1N152 168-386 (bovine entry)); assay: ELISA on plate-coated wild-type HuHtrA1_PD, row WT (Example 7); column head on the sheet reads YW505.94 Fab, legend paragraph 70 says IgG94
T3 construct: Expressed in E. coli; not shown: thrombin cleavage site between tag and D161
T3 sequence (F1N152 other isoform, or with tags, fused parts or gaps): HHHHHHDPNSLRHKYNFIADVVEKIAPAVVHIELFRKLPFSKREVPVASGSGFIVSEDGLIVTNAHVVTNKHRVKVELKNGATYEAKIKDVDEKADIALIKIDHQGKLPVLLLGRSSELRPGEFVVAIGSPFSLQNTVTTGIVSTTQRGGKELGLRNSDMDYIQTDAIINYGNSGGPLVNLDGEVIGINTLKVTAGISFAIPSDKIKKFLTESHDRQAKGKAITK
Experimental: The mutants were expressed in E. coli and the trimers purified by size exclusion chromatography as described in Example 2. Binding was determined using an ELISA assay, which was conducted using a MAXISORP™ microtiter plate coated with HuHtrA1_PD mutants at 2 μg/ml in PBS for 1 h, followed by blocking with PBST buffer (0.5% BSA and 0.05% Tween 20 in PBS) for 1 h at room temperature. […] The plates were washed with PBT buffer (0.05% Tween 20 in PBS), and HRP-conjugated goat anti-human IgG (H+L) (Invitrogen) was added (1:5000 in PBST buffer) and incubated for 1 h. The plates were washed with PBT buffer and developed by adding tetramethylbenzidine substrate (Kirkegaard and Perry Laboratories, Gaithersburg, Md.). The absorbance at 450 nm was plotted as a function of antibody concentration in solution to determine EC₅₀ values.

Protease domain of murine HtrA1 (MuHtrA1_PD) (G156-S367), sequence (Q9R118 other isoform, or with tags, fused parts or gaps): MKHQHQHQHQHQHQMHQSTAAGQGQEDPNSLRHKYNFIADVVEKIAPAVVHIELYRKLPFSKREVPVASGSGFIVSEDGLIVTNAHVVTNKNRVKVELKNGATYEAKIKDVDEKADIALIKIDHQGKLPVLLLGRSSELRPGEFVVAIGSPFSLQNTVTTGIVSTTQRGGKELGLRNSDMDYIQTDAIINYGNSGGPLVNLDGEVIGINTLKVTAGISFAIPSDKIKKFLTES
T1 sequence (Q92743 other isoform, or with tags, fused parts or gaps): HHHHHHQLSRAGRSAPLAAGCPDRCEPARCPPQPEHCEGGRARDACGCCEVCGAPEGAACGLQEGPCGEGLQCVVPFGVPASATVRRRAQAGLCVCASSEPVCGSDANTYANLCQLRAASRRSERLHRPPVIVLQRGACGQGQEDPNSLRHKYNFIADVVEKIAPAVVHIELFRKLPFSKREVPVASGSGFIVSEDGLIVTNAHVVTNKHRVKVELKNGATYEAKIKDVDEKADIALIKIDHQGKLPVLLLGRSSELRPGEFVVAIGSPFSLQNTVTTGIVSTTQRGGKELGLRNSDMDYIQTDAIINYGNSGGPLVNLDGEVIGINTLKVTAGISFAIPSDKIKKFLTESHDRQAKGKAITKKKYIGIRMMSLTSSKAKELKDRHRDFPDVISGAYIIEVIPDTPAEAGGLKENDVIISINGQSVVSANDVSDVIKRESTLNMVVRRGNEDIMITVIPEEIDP

- IC50, inhibition of H2-Opt peptide hydrolysis (FRET assay) [1]: 29.1 nM
- Kd [2]: 28.9 nM
- koff [2]: 0.0129 s⁻¹
- kon [2]: 450000 M⁻¹ s⁻¹
- Kd [3]: 31.1 nM
- koff [3]: 0.0109 s⁻¹
- kon [3]: 351000 M⁻¹ s⁻¹
- Kd [4]: 28.9 nM
- koff [4]: 0.0129 s⁻¹
- kon [4]: 447000 M⁻¹ s⁻¹
- EC50 [5]: 5.6 nM
- Relative to WT EC50 Fold Decrease [5]: 1 fold
B1: Fab94 (anti-HtrA1 antibody YW505.94, Fab format) (Fab, V domains shown)
VH: EVQLVESGGGLVQPGGSLRLSCAASGFNISGYYIHWVRQAPGKGLEWVGWIDPYGGDTNYADSVKGRFTISADTSKNTAYLQMNSLRAEDTAVYYCARGTFLTSWGHYFDYWGQGT
VL: DIQMTQSPSSLSASVGDRVTITCRASQDVSTAVAWYQQKPGKAPKLLIYSASFLYSGVPSRFSGSGSGTDFTLTISSLQPEDFATYYCQQSYTTPPTFGQGTKVEIKR
